Experimental data taken from patent US12037419B2 (The Feinstein Institutes for Medical Research, priority 2016, dated 2024).

Key:
[1] = test system: human monocytes; experiment: Induction of anti-inflammatory molecules / M2-like phenotype (Mer, PDL-1, IL-10, CD163) in monocytes; format: cell-based; conditions: together with HMGB1 3 μg/ml, C1q 25 μg/ml or C1q tail 53 μg/ml, 24 h
Procedure: (§1) Monocyte isolation and stimulation: Human PBMCs were obtained following institutional guidelines of the Feinstein Institute for Medical Research (Feinstein) and isolated from blood of healthy donors by density centrifugation (New York Blood Bank). Monocytes were negatively enriched using a human monocyte enrichment kit (Stem Cell Technology). Purity of monocytes (≥90% CD11b+CD14+LAIR-1+) was determined by flow cytometry. […] Splenic murine monocytes from wild type mice, RAGE deficient or LAIR-1 conditional knockout mice were isolated using EasySep mouse monocyte enrichment kit (Stem Cell Technology). C57BL/6 mice, Lysozyme2-Cre transgenic mice were purchased from Jackson Laboratory. Myeloid specific LAIR-1 conditional knockout mice (Lysozyme2-Cre×LAIR fl/fl) were bred and maintained in our facility (Feinstein) under specific pathogen-free conditions. RAGE deficient mice (Department of Medicine, Karolinska Institute Stockholm, Sweden) were maintained at Feinstein. Eight-to ten weeks old male mice were used for experiments. All animal procedures were approved by the Feinstein Institutional Animal Care and Use Committee.
RT-PCR analysis and primers: Total RNA was extracted from cells (1-2×10^6 cells per sample) with an RNeasy kit (Qiagen, Venlo, Limburg, Netherlands) and cDNA was generated using an iScript cDNA synthesis kit (Bio-Rad laboratories). […] The relative induction was calculated by 2-ΔΔCt.
(§2) Cytokine analysis: Cytokine levels were measured using a Human Proinflammatory 7-plex assay following the manufacturer's protocols (Meso Scale Discovery (MSD). MSD plates were analyzed on the MS2400 imager (MSD). All standards and samples were run in duplicates.
Flow cytometry: Cells were suspended in staining buffer containing 2% BSA and incubated with Fc block (Miltenyi Biotec) for 15 min on ice. […] Events were acquired using either an LSRII or Fortessa cell analyzer (BD Biosciences), and data were analyzed using FlowJo (Tree star).

[2] = target: T1, RAGE (Homo sapiens, UniProt Q15109); experiment: SPR assay of C1q and RAGE binding; conditions: data not shown
T1 construct: purchased R&D Systems
T1 sequence (Q15109 23-342 limits assumed): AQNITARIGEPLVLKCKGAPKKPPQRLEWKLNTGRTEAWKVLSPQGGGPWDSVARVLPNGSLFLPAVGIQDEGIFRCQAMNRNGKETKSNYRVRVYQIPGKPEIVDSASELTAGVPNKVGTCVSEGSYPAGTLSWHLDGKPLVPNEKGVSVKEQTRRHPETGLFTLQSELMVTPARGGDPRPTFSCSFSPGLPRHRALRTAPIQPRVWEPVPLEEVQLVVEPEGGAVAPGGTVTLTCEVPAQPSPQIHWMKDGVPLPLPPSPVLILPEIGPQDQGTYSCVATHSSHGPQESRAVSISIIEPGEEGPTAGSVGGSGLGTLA
Procedure: Surface Plasmon Resonance analysis (SPR): For real-time binding interaction studies, a BIAcore T200 instrument (GE Healthcare) was used. […] A 1:1 mixture of N-hydroxysuccinimide and N-ethyl-N-(dimethyaminopropyl) carbodiimide was used to activate 2 flow-cells of the CMS chip. […] The analytes were diluted in 1×PBS+0.01% (vol/vol) tween-20 buffer. The analytes were sequentially injected at a flow rate of 30 μl/min for 60 s at 25° C. The KD was dertermined using the BIAcore evaluation software 2.0 (GE Healthcare) supposing a 1:1 binding ratio.

[3] = test system: human monocytes; experiment: SeaHorse cellular flux assay (OCR, ECAR); format: cell-based; conditions: HMGB1 3 μg/ml alone, 24 h
Procedure: Cell metabolism analysis using SeaHorse Cellular Flux assay. […] One hour prior to measurement, culture medium was exchanged for assay medium (unbuffered DMEM (Sigma), supplemented with 10 mM Glucose, 1 mM Pyruvate and 2 mM Glutamine for mitochondrial assays, or with 2 mM Glutamine alone for glycolytic assays. Reagents were injected during the measurement to achieve final concentrations of oligomycin (1 μM), carbonyl cyanide p-(trifluoromethoxy) phenylhydrazone (FCCP) ([…]), Rotenone/antimycin A (0.5 μM). Glucose (10 mM), and 2-Deoxy-D glucose (50 mM). Oxygen consumption rate (OCR) and Extracellular acidification rate (ECAR) values were measured using a SeaHorse XfP instrument (SeaHorse bioscience). Measured values were normalized to the number of live cells present in each well as determined by a trypan blue staining by the end of each run. For OCR/ECAR ratio calculations, an average of the last two basal readings was used for both OCR and ECAR.

[4] = test system: allogeneic primary human CD4 T cells; experiment: Allogeneic mixed lymphocyte reaction; format: cell-based; conditions: HMGB1 3 μg/ml alone
Procedure: Allogeneic CD4 T lymphocytes were isolated from blood using the Naïve CD4+ T cell isolation kit II (Miltenyi Biotec.) following the manufacturer's protocol. Cells were analyzed by flow cytometry (>90%). T cells were labeled with 5 μM Cell Trace Violet cell proliferation kit (Thermo Fisher Scientific), added to mono/macrophages at a density of 2×10^5 cells/well (a 1:2 ratio) in the presence of 1 μg/ml anti-CD3 (OKT3, eBioscience). Control cultures contained medium only or T cells or mono/macrophages alone. After 4 days, cells were stained with FITC-anti-CD4, PerCPCy 5.5-CD14, PE-LAIR-1 and fixable viability dyes (FVD, eBioscience) for 20 min at room temperature and subsequently washed and fixed. Live cells (FVD-negative cells) were then gated on CD4-positive, and cell trace violet was assessed by flow cytometry on a BD LSR II (BD Biosciences). Cell proliferation was analyzed as described (51). The % divided cells was defined as the probability that a cell has divided at least once from the original population. The division index was defined as the average number of cell divisions that a cell in the original population has undergone.

[5] = test system: human monocytes; experiment: Monocyte to DC differentiation with GM-CSF and IL-4 (flow cytometry); format: cell-based; conditions: HMGB1 alone 24 h, then GM-CSF and IL-4
[6] = test system: human monocytes; experiment: HMGB1-induced monocyte activation (cytokine mRNA by q-PCR, protein by ELISA/MSD); format: cell-based; conditions: HMGB1 alone
Procedure: as §1
RT-PCR analysis and primers: Total RNA was extracted from cells (1-2×10^6 cells per sample) with an RNeasy kit (Qiagen, Venlo, Limburg, Netherlands) and cDNA was generated using an iScript cDNA synthesis kit (Bio-Rad laboratories). Real Time-PCR was performed on a Light Cycler 480 II (Roche) using Light Cycler 480 master mix with primers (Applied Biosystems) for IFNα1 (Hs00256882), IFNα7 (mm02525960), MX1 (Hs00182073, mm01217998), IL-6 (Hs00985639, mm99999064), TNFα (Hs00174128, mm00443258), IL-12a (Hs00168405), Mer (Hs01031973), PDL-1 (Hs01125301), IL-10 (Hs00961622), CD163 (Hs00174705), HPRT1 (Hs99999909, mm01545399) and Polr2a (Hs00172187). The genes of interest were normalized to the expression of house keeping genes and were compared to a control condition with no treatment. The relative induction was calculated by 2-ΔΔCt.
Transfection: For RNA interference assays, human monocytes were transfected using an Amaxa Nucleofector kit (Lonza) with a greater than 40% transfection efficiency. siRNAs were obtained from Qiagen. The target sequence of human LAIR1-11 is […] (SEQ ID NO:9). The efficiency of knockdown was determined by flow cytometry and q-PCR.
as §2

[7] = test system: murine macrophages; experiment: RvD2 and LTB4 in murine macrophages after HMGB1 in vivo (FIG. 22); set-up: species or system mouse
[8] = test system: NZB/W mice; experiment: NZB/W lupus mice in vivo (FIG. 23-25); set-up: species or system mouse

Molecule: C1q tail: C1q tail purified from whole C1q; collagen-like tail
- transcription and protein expression of anti-inflammatory factors (Mer, PDL-1, IL-10, CD163) [1]: did not mediate similar effects
- binding to RAGE [2]: No binding

B1: HMGB1: Recombinant HMGB1 (Calmodulin Binding Protein Epitope, Cbp tagged) (protein)
chain: MGKGDPKKPRGKMSSYAFFVQTCREEHKKKHPDASVNFSEFSKKCSERWKTMSAKEKGKFEDMAKADKARYEREMKTYIPPKGETKKKFKDPNAPKRPPSAFFLFCSEYRPKIKGEHPGLSIGDVAKKLGEMWNNTAADDKQPYEKKAAKLKEKYEKDIAAYRAKGKPDAAKKGVVKAEKSKKKKEEEEDEEDEEDEEEEEDEEDEDEEEDDDDE
modifications: left off: small tags and cut ends
- OCR/ECAR ratio [3]: significantly decreased
- baseline oxidative phosphorylation (OCR) and glycolytic metabolism (ECAR) [3]: enhanced
- stimulation of T cells by monocytes exposed to HMGB1 [4]: induced the strongest mixed lymphocyte reaction
- monocyte to DC differentiation after pre-treatment with HMGB1 [5]: monocyte to DC differentiation occurred
- transcription and secretion of type 1 IFN, IFN-inducible genes and proinflammatory cytokines [6]: dramatically increased

B2: KLKEKYEKDIAAYRAKGKPDAAKKGVVKAEKSKKGGGGSGGGGSGGGGSKGEQ GEPGAPGI (peptide)
chain: KLKEKYEKDIAAYRAKGKPDAAKKGVVKAEKSKKGGGGSGGGGSGGGGSKGEQGEPGAPGI
modifications: Artificial based on human
notes: HMGB1 B box-linker-C1q peptide
- LTB4 induction by HMGB1 in murine macrophages [7]: abolishes LTB4 induction
- RvD2 in murine macrophages ([7]; HMGB1 challenge): induces RvD2
- anti-DNA IgM/IgG-producing splenocytes ([8]; NZB/W mice in vivo): decreases anti-DNA IgM/IgG-producing splenocytes
- inflammatory and anti-inflammatory markers in splenocytes ([8]; NZB/W mice in vivo): decreases inflammatory and increases anti-inflammatory markers
- progression of serum anti-dsDNA antibodies ([8]; NZB/W mice in vivo): slows the progression
- kidney IgG deposition ([8]; NZB/W mice, staining data not shown): decreases kidney IgG deposition
